Assay results reported in the supplement of paper PMC10065799, “High-throughput profiling of sequence recognition by tyrosine kinases and SH2 domains using bacterial peptide display” (eLife, 2023).

Target: FGFR3 (UniProt P22607)
Assay: phosphorylation enrichment, bacterial display (enrichment ratio); higher = better substrate or ligand; peptides without Tyr show the background
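Note: 11-residue human phosphosite peptides and single-mutation variants displayed on the E. coli surface, counted by deep sequencing, each peptide's frequency after selection divided by its frequency in the unselected input library; frequency after pTyr selection over input frequency; kinase dosed for 20-30% of maximal phosphorylation in three min.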

Sequence of FGFR3 (P22607 whole entry, looked up): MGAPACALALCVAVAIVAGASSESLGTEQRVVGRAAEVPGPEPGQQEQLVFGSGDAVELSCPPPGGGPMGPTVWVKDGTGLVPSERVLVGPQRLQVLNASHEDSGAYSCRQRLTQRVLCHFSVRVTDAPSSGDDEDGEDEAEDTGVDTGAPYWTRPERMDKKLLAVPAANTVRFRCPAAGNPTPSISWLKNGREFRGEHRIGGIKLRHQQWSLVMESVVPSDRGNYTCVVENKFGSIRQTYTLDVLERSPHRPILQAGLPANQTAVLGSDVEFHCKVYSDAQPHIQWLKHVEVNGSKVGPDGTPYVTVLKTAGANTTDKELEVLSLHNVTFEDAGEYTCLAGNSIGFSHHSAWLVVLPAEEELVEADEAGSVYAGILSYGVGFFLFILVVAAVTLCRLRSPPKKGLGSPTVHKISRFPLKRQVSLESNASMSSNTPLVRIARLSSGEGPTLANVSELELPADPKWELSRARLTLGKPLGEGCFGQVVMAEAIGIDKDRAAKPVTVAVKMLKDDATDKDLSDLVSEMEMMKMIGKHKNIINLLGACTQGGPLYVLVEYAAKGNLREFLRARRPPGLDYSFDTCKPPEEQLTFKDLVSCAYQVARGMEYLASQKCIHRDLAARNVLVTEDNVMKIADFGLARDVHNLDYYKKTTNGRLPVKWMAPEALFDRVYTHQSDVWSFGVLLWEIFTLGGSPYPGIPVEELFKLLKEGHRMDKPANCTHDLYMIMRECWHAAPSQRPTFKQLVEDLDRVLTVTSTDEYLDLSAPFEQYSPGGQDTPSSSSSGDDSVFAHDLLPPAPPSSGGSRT

Sequence	phosphorylation enrichment
KKFVPYFDLFM [IPO5_Y530_E525K_YF]	0.898
PDNKPYIFKVF [PIK3AP1_Y553_E551K]	0.831
LAVVDYIRRQK [ATM_Y1915_M1916I]	0.92
LDAFIYDAALL [GRIN2A_Y730_V734L]	0.902
TFWKKYCTFWK [CCDC70_Y125_R126C]	0.619
FITVGYVDDTQ [HLA-B_Y51_S48T]	0.741
KHGGNYVPAPK [OSCP1_Y237]	0.604
QNVADYMRYLM [RPL5_Y207]	0.893
NFATLYLKIFH [PDE6B_Y219_YF]	0.734
LKLWDYSRGRC [WDR5B_Y239]	0.694
HHTNEYEFDEL [TGM1_Y134_D132N_YF]	0.832
YAANYYKLLGN [ROR2_Y646_D644N]	1.35
TIQIMFGCDVG [HLA-A_Y123_Y123F]	1.14
EPFKVYRIVPE [IRF8_Y110_YF]	0.485
PLQHVYKIGGI [EEF1A2_Y254_D252H]	0.733
VPLATYMQIFK [RPL21_Y30_R32Q_YF]	0.54
GCKKRYDKDKP [THAP1_Y14_N12K]	0.703
RAFSWYQHQRA [NDST1_Y714_YF]	1
FLRTGYSVPFG [TGM1_Y370_YF]	0.632
NMHSTYAKLAA [SEC22B_Y193]	0.349
ISHVAYCVLGK [TRRAP_Y892_R893C]	0.834
DFTEAYNSKIK [CLK1_Y305_P307S_YF]	0.65
TYEYKYPEGSS [TGM4_Y440]	0.755
SGPRRYTVAAL [TTR_Y125_I127V]	0.423
TRGLEYIVPLM [CLCN4_Y548_G544R]	1.04
CPYNLYAAQLS [HGD_Y40_E42A]	0.939
TRDVNYGWVIR [MT-CYB_Y75_I78V]	0.869
QEGPEYWDLET [HLA-A_Y83_Q86L]	3.3
RRSKMYLKTRS [LPL_Y329_S325R]	0.571

Tested on: Fer (mouse)
Assay: as above

Sequence	phosphorylation enrichment
KKFVPYFDLFM [IPO5_Y530_E525K_YF]	0.53
PDNKPYIFKVF [PIK3AP1_Y553_E551K]	0.728
LAVVDYIRRQK [ATM_Y1915_M1916I]	0.839
LDAFIYDAALL [GRIN2A_Y730_V734L]	14.9
TFWKKYCTFWK [CCDC70_Y125_R126C]	0.364
FITVGYVDDTQ [HLA-B_Y51_S48T]	0.528
KHGGNYVPAPK [OSCP1_Y237]	0.456
QNVADYMRYLM [RPL5_Y207]	0.736
NFATLYLKIFH [PDE6B_Y219_YF]	0.502
LKLWDYSRGRC [WDR5B_Y239]	0.796
HHTNEYEFDEL [TGM1_Y134_D132N_YF]	0.558
YAANYYKLLGN [ROR2_Y646_D644N]	0.506
TIQIMFGCDVG [HLA-A_Y123_Y123F]	0.749
EPFKVYRIVPE [IRF8_Y110_YF]	0.424
PLQHVYKIGGI [EEF1A2_Y254_D252H]	0.696
VPLATYMQIFK [RPL21_Y30_R32Q_YF]	0.308
GCKKRYDKDKP [THAP1_Y14_N12K]	0.445
RAFSWYQHQRA [NDST1_Y714_YF]	0.794
FLRTGYSVPFG [TGM1_Y370_YF]	0.466
NMHSTYAKLAA [SEC22B_Y193]	0.34
ISHVAYCVLGK [TRRAP_Y892_R893C]	0.952
DFTEAYNSKIK [CLK1_Y305_P307S_YF]	0.465
TYEYKYPEGSS [TGM4_Y440]	0.392
SGPRRYTVAAL [TTR_Y125_I127V]	0.393
TRGLEYIVPLM [CLCN4_Y548_G544R]	0.409
CPYNLYAAQLS [HGD_Y40_E42A]	3.49
TRDVNYGWVIR [MT-CYB_Y75_I78V]	1.05
QEGPEYWDLET [HLA-A_Y83_Q86L]	0.748
RRSKMYLKTRS [LPL_Y329_S325R]	0.514

Target: Fes (UniProt P07332)
Sequence (P07332 whole entry, looked up): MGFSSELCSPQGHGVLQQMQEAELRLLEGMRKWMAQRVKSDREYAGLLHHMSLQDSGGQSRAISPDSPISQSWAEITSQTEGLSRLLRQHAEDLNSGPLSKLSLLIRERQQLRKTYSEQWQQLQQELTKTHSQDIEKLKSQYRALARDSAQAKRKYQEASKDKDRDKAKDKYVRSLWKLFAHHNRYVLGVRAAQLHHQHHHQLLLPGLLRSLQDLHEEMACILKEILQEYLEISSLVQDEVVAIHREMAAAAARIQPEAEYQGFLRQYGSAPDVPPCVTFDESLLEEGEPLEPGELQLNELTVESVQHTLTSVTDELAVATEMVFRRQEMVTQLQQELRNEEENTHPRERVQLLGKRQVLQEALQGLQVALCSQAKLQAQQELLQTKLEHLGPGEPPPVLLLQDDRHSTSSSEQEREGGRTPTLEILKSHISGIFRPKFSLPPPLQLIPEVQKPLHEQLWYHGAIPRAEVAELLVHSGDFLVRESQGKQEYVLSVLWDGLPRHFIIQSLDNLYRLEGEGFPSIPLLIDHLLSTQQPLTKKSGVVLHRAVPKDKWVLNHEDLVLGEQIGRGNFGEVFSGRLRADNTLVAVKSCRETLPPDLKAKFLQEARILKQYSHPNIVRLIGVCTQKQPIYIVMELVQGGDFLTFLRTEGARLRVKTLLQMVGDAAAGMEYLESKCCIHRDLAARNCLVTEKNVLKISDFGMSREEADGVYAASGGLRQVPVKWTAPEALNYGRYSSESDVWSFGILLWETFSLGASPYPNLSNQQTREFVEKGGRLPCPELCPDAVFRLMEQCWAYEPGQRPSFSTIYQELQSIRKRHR
Assay: as above

Sequence	phosphorylation enrichment
KKFVPYFDLFM [IPO5_Y530_E525K_YF]	1.35
PDNKPYIFKVF [PIK3AP1_Y553_E551K]	1.75
LAVVDYIRRQK [ATM_Y1915_M1916I]	1.24
LDAFIYDAALL [GRIN2A_Y730_V734L]	1.86
TFWKKYCTFWK [CCDC70_Y125_R126C]	0.794
FITVGYVDDTQ [HLA-B_Y51_S48T]	1.21
KHGGNYVPAPK [OSCP1_Y237]	1.05
QNVADYMRYLM [RPL5_Y207]	1.96
NFATLYLKIFH [PDE6B_Y219_YF]	1.27
LKLWDYSRGRC [WDR5B_Y239]	1.19
HHTNEYEFDEL [TGM1_Y134_D132N_YF]	1.42
YAANYYKLLGN [ROR2_Y646_D644N]	0.609
TIQIMFGCDVG [HLA-A_Y123_Y123F]	1.86
EPFKVYRIVPE [IRF8_Y110_YF]	0.698
PLQHVYKIGGI [EEF1A2_Y254_D252H]	1.06
VPLATYMQIFK [RPL21_Y30_R32Q_YF]	0.654
GCKKRYDKDKP [THAP1_Y14_N12K]	0.702
RAFSWYQHQRA [NDST1_Y714_YF]	1.72
FLRTGYSVPFG [TGM1_Y370_YF]	0.955
NMHSTYAKLAA [SEC22B_Y193]	0.401
ISHVAYCVLGK [TRRAP_Y892_R893C]	1.49
DFTEAYNSKIK [CLK1_Y305_P307S_YF]	1.02
TYEYKYPEGSS [TGM4_Y440]	1.11
SGPRRYTVAAL [TTR_Y125_I127V]	0.496
TRGLEYIVPLM [CLCN4_Y548_G544R]	0.78
CPYNLYAAQLS [HGD_Y40_E42A]	1.13
TRDVNYGWVIR [MT-CYB_Y75_I78V]	1.45
QEGPEYWDLET [HLA-A_Y83_Q86L]	2.29
RRSKMYLKTRS [LPL_Y329_S325R]	0.709

Target: Fyn (UniProt P06241)
Sequence (P06241 whole entry, looked up): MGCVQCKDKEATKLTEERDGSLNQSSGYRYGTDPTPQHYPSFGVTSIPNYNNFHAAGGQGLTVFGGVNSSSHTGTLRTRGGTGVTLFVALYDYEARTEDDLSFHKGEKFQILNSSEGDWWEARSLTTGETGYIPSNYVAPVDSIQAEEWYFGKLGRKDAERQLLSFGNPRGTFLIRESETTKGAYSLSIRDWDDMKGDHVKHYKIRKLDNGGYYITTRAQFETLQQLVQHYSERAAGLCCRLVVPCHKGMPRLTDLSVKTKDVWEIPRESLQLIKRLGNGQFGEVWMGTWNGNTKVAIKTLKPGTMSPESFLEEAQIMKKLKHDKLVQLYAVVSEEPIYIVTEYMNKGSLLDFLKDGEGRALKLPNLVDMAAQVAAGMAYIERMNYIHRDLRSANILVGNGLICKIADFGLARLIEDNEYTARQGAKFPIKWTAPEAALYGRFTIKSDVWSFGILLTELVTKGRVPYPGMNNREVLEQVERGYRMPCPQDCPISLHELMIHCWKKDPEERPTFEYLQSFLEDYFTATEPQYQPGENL
Assay: as above

Sequence	phosphorylation enrichment
KKFVPYFDLFM [IPO5_Y530_E525K_YF]	0.479
PDNKPYIFKVF [PIK3AP1_Y553_E551K]	0.665
LAVVDYIRRQK [ATM_Y1915_M1916I]	0.649
LDAFIYDAALL [GRIN2A_Y730_V734L]	8.97
TFWKKYCTFWK [CCDC70_Y125_R126C]	0.381
FITVGYVDDTQ [HLA-B_Y51_S48T]	0.529
KHGGNYVPAPK [OSCP1_Y237]	0.359
QNVADYMRYLM [RPL5_Y207]	0.723
NFATLYLKIFH [PDE6B_Y219_YF]	0.412
LKLWDYSRGRC [WDR5B_Y239]	0.66
HHTNEYEFDEL [TGM1_Y134_D132N_YF]	1.13
YAANYYKLLGN [ROR2_Y646_D644N]	0.46
TIQIMFGCDVG [HLA-A_Y123_Y123F]	0.545
EPFKVYRIVPE [IRF8_Y110_YF]	0.462
PLQHVYKIGGI [EEF1A2_Y254_D252H]	0.643
VPLATYMQIFK [RPL21_Y30_R32Q_YF]	0.887
GCKKRYDKDKP [THAP1_Y14_N12K]	0.396
RAFSWYQHQRA [NDST1_Y714_YF]	0.769
FLRTGYSVPFG [TGM1_Y370_YF]	0.729
NMHSTYAKLAA [SEC22B_Y193]	0.415
ISHVAYCVLGK [TRRAP_Y892_R893C]	0.675
DFTEAYNSKIK [CLK1_Y305_P307S_YF]	0.512
TYEYKYPEGSS [TGM4_Y440]	0.394
SGPRRYTVAAL [TTR_Y125_I127V]	0.457
TRGLEYIVPLM [CLCN4_Y548_G544R]	0.456
CPYNLYAAQLS [HGD_Y40_E42A]	3.15
TRDVNYGWVIR [MT-CYB_Y75_I78V]	0.647
QEGPEYWDLET [HLA-A_Y83_Q86L]	0.846
RRSKMYLKTRS [LPL_Y329_S325R]	0.708
